Results as given in patent US20220348652A1 (ANTAIMMU BIOMED, published 2022).

Columns and labels:
[1] = molecular target: T1, human CD47 polypeptide (Met1-Pro139 of human CD47 fused with a Fc region) (human, UniProt Q08722 19-139); experiment: single colony ELISA, scFv supernatant on coated CD47 polypeptide
T1 construct: range 1-139; Made in HEK293 cells and purified from the supernatant; also called CD47 protein; not shown: Fc region
Protocol: Phages were infected into E. coli host cells followed by plating the infected E. coli cells on agar plate. Each colony was picked up and cultured in 2×YT (yeast extract tryptone) medium containing 100 μg/ml ampicillin with vigorous shacking at 37° C. After OD₆₀₀ of the culture was greater than 1, isopropyl β-d-1-thiogalactopyranoside (IPTG) was added to each culture and the final concentration of IPTG was 1 mM. The cultures were incubated at 37° C. overnight, and then centrifuged 4,000×g for 10 minutes. The scFvs were secreted and collected from the supernatant. The collected scFvs were added onto a 96-well plate coated with CD47 polypeptide followed by the analysis of ELISA so as to determining the binding affinity of the selected scFvs and CD47 polypeptide.

[2] = molecular target: T2, human CD47 expressed on CHO-CD47 cells (human, UniProt Q08722 19-323); experiment: flow cytometry on CHO-CD47 cells (MFI, FIG. 2)
T2 construct: whole, on cells; also called cellular CD47; full-length CD47
Protocol: The binding of the anti-CD47 scFvs to the surface of CHO-CD47 cells was determined by flow cytometry, and the data was expressed as mean fluorescence intensity (MFI).

[3] = molecular target: T2, human CD47 expressed on CHO-CD47 cells; experiment: flow cytometry, IgG on CHO-CD47 cells
Protocol: The anti-CD47 scFvs were respectively expressed in their IgG formats in accordance with the procedure described in Materials and Methods. CHO cells expressing CD47 (CHO-CD47 cells) and wild-type CHO cells (CHO-WT cells) were respectively treated with anti-CD47 IgGs. After washing, the binding of the anti-CD47 IgGs was detected using a polyclonal APC-conjugated anti-human IgG antibody. Relative MFI was measured by flow cytometry. Antibody R23, a reference antibody constructed according to the sequences of ADI29341 disclosed in US20200181259A1, served as a positive control in this study.

[4] = molecular target: T1, human CD47 polypeptide (Met1-Pro139 of …); experiment: ELISA on coated CD47 polypeptide (FIG. 1)

Binder	binding result [1]	binding result [2]	EC50 [3] [µg/mL]	binding result [4]
scFv CD47-22 (scFv, V domains shown, scFv) VL: DIQMTQSPSSLSASVGDRVTITCRASQDVHSWVAWYQQKPGKAPKLLISRATWLASGVPSRFSGSGSGTDFTLTISSLQPEDFATYYCQQSSNFPLTFGQGTKVEIKR VH: EVQLVESGGGLVQPGGSLRLSCAASGFTINDYGIHWVRQAPGKGLEWVAGIGPFWGSTFYADSVKGRFTISADTSKNTAYLQMNSLRAEDTAVYYCARWMWGRWSAMDYWGQGTLVTVSS	binds	binds		
scFv CD47-3 (scFv, V domains shown, scFv) VL: DIQMTQSPSSLSASVGDRVTITCRASQDVSNRVAWYQQKPGKAPKLLISRANGLASGVPSRFSGSGSGTDFTLTISSLQPEDFATYYCQQGSHFPITFGQGTKVEIKR VH: EVQLVESGGGLVQPGGSLRLSCAASGFTISNWWIHWVRQAPGKGLEWVAHIGPTVGKTYYADSVKGRFTISADTSKNTAYLQMNSLRAEDTAVYYCARGGFAMDHWGQGTLVTVSS	binds	binds		
Antibody R23 (antibody, from another filing, V domains shown) VH: QVQLQESGPGLVKPSETLSLTCTVSGGSIEHYYWSWIRQPPGKGLEWIGYIYYSGSTNYNPSLKSRVTISVDTSKNQFSLKLSSVTAADTAVYYCARGKTGSAAWGQGTLVTVSS VL: DIQMTQSPSSVSASVGDRVTITCRASQGISRWLAWYQQKPGKAPKLLIYAASSLQSGVPSRFSGSGSGTDFTLTISSLQPEDFATYYCQQTVSFPITFGGGTKVEIKR			4.18	
scFv CD47-20 (scFv, V domains shown, scFv) VL: DIQMTQSPSSLSASVGDRVTITCRASQDVHNKVAWYQQKPGKAPKLLIYYTSNLYSGVPSRFSGSGSGTDFTLTISSLQPEDFATYYCQQHFTYPLTFGQGTKVEIKR VH: EVQLVESGGGLVQPGGSLRLSCAASGFTISNYYIHWVRQAPGKGLEWVAGIWPSGGSTSYADSVKGRFTISADTSKNTAYLQMNSLRAEDTAVYYCTRGGYAMDYWGQGTLVTVSS	binds	binds		
scFv CD47-31 (scFv, V domains shown, scFv) VL: DIQMTQSPSSLSASVGDRVTITCRASQDVHSKVAWYQQKPGKAPKLLIYSTNRLYSGVPSRFSGSGSGTDFTLTISSLQPEDFATYYCQQHSNYPVTFGQGTKVEIKR VH: EVQLVESGGGLVQPGGSLRLSCAASGFTISNWWIHWVRQAPGKGLEWVAAINPFNGRTDYADSVKGRFTISADTSKNTAYLQMNSLRAEDTAVYYCTRGGYAMDYWGQGTLVTVSS	binds	binds		
scFv CD47-6 (scFv, V domains shown, scFv) VL: DIQMTQSPSSLSASVGDRVTITCRASQDVSSRVAWYQQKPGKAPKLLIYYTSNLYSGVPSRFSGSGSGTDFTLTISSLQPEDFATYYCQQHFNYPLTFGQGTKVEIKR VH: EVQLVESGGGLVQPGGSLRLSCAASGFTITNWWIHWVRQAPGKGLEWVATISPYSGDTHYADSVKGRFTISADTSKNTAYLQMNSLRAEDTAVYYCARGGYAMDHWGQGTLVTVSS		binds		binds
CD47-2 IgG (antibody, V domains shown, IgG made in CHO cells from the scFv; The VL-CL junction was not checked (VL ends in ...EIKR); also called antibody CD47-2) VH: EVQLVESGGGLVQPGGSLRLSCAASGFTISNSFIHWVRQAPGKGLEWVAYIWPWSGSTGYADSVKGRFTISADTSKNTAYLQMNSLRAEDTAVYYCARGGFSMDHWGQGTLVTVSS VL: DIQMTQSPSSLSASVGDRVTITCRASQDVSSKVAWYQQKPGKAPKLLIYGTNRLYPGVPSRFSGSGSGTDFTLTISSLQPEDFATYYCQQSSNYPLTFGQGTKVEIKR			2.34	
scFv CD47-32 (scFv, V domains shown, scFv) VL: DIQMTQSPSSLSASVGDRVTITCRASQDVHYTVAWYQQKPGKAPKLLIYGTNRLYTGVPSRFSGSGSGTDFTLTISSLQPEDFATYYCQQHFNFPITFGQGTKVEIKR VH: EVQLVESGGGLVQPGGSLRLSCAASGFTINNFWIHWVRQAPGKGLEWVANISPFTGDTRYADSVKGRFTISADTSKNTAYLQMNSLRAEDTAVYYCARGGYAMDIWGQGTLVTVSS	binds	binds		
scFv CD47-8 (scFv, V domains shown, scFv) VL: DIQMTQSPSSLSASVGDRVTITCRASQDVHYAVAWYQQKPGKAPKLLIYGTNRLYPGVPSRFSGSGSGTDFTLTISSLQPEDFATYYCQQHSNFPLTFGQGTKVEIKR VH: EVQLVESGGGLVQPGGSLRLSCAASGFTINNFYIHWVRQAPGKGLEWVASIWPWSGETGYADSVKGRFTIGADTSKNTAYLQMNSLRAEDTAVYYCARGGFAMDFWGQGTLVTVSS		binds		binds
CD47-7 IgG (antibody, V domains shown, IgG made in CHO cells; constant domains as for m19; also called antibody CD47-7) VH: EVQLVESGGGLVQPGGSLRLSCAASGFTITNYYIHWVRQAPGKGLEWVASIWPGYGNTGYADSVKGRFTISADTSKNTAYLQMNSLRAEDTAVYYCARGGYSMDFWGQGTLVTVSS VL: DIQMTQSPSSLSASVGDRVTITCRASQDVYTRVAWYQQKPGKAPKLLIYYTRNLYSGVPSRFSGSGSGTDFTLTISSLQPEDFATYYCQQAANYPLTFGQGTKVEIKR			2.44	

More lines, now with the values ahead:

binding result [1]	binding result [2]	EC50 [3] [µg/mL]	binding result [4]	Binder
binds	binds			scFv CD47-28 (scFv, V domains shown, scFv) VL: DIQMTQSPSSLSASVGDRVTITCRASQDVHGKVAWYQQKPGKAPKLLIYYARNLYSGVPSRFSGSGSGTDFTLTISSLQPEDFASYYCQQYFNFPLTFGQGTKVEIKR VH: EVQLVESGGGLVQPGGSLRLSCAASGFTITNWWIHWVRQAPGKGLEWVAEINPFGGNTYYADSVKGRFTISADTSKNTAYLQMNSLRAEDTAVYYCTRGGYAMDYWGQGTLVTVSS
binds	binds			scFv CD47-27 (scFv, V domains shown, scFv) VL: DIQMTQSPSSLSASVGDRVTITCRASQDVHNGVAWYQQKPGKAPKLLIFRTSWLLSGVPSRFSGSGSGTDFTLTISSLQPEDFATYYCQQGSSFPFTFGQGTKVEIKR VH: EVQLVESGGGLVQPGGSLRLSCAASGFTINNYWIHWVRQAPGKGLEWVARISPFDGGTYYADSVKGRFTISADTSKNTAYLQMNSLRAEDTAVYYCARGGYAMDLWGQGTLVTVSS
	binds		binds	scFv CD47-5 (scFv, V domains shown, scFv) VL: DIQMTQSPSSLSASVGDRVTITCRASQDVHNKVAWYQQKPGKAPKLLIYSATRLYPGVPSRFSGSGSGTDFTLTISSLQPEDFATYYCQQHFNYPLTFGQGTKVEIKR VH: EVQLVESGGGLVQPGGSLRLSCAASGFTITNYWIHWVRQAPGKGLEWVAHIWPGVGDTDYADSVKGRFTISADTSKNTAYLQMNSLRAEDTAVYYCARGGFAMDLWGQGTLVTVSS
	binds		binds	scFv CD47-9 (scFv, V domains shown, scFv) VL: DIQMTQSPSSLSASVGDRVTITCRASQDVSNRVAWYQQKPGKAPKLLIYGTNRLYTGVPSRFSGSGSGTDFTLTISSLQPEDFATYYCQQHFNYPITFGQGTKVEIKR VH: EVQLVESGGGLVQPGGSLRLSCAASGFTINSWWIHWVRQAPGKGLEWVAKISPFNGDTHYADSVKGRFTISADTSKNTAYLQMNSLRAEDTAVYYCARGGYAMDIWGQGTLVTVSS
	binds		binds	scFv CD47-14 (scFv, V domains shown, scFv) VL: DIQMTQSPSSLSASVGDRVTITCRASQDVSTKVAWYQQKPGKAPKLLIYFTRNLYSGVPSRFSGSGSGTDFTLTISSLQPEDFATYYCQQHSNYPVTFGQGTKVEIKR VH: EVQLVESGGGLVQPGGSLRLSCAASGFTISNWWIHWVRQAPGKGLEWVAGISPYSGKTDYADSVKGRFTISADTSKNTAYLQMNSLRAEDTAVYYCARGGYAMDLWGQGTLVTVSS
binds	binds			scFv CD47-29 (scFv, V domains shown, scFv) VL: DIQMTQSPSSLSASVGDRVTITCRASQDVHSKVAWYQQKPGKAPKLLIYSTNRLYPGVPSRFSGSGSGTDFTLTISSLQPEDFATYYCQQHFTYPLTFGQGTKVEIKR VH: EVQLVESGGGLVQPGGSLRLSCAASGFTITNWWIHWVRQAPGKGLEWVAGITPYSGDTYYADSVKGRFTISADTSKNTAYLQMNSLRAEDTAVYYCARGGYAIDNWGQGTLVTVSS
	binds		binds	scFv CD47-4 (scFv, V domains shown, scFv) VL: DIQMTQSPSSLSASVGDRVTITCRASQSVDNGVAWYQQKPGKAPKLLIYSATRLYPGVLSRFSGSGSGTDFTLTISSLQPEDFATYYCQQSSTFPLTFGQGTKVEIKR VH: EVQLVESGGGLVQPGGSLRLSCAASGFTINDYWIHWVRQAPGKGLEWVAHIWPTYGGTHYADSVKGRFTISADTSKNTAYLQMNSLRAEDAAVYYCARGGYSLDIWGQGTLVTVSS
